Measured values taken from paper PMC7094341.

Experiments:
[1] = target: SARS-CoV papain-like protease (PLpro), trypsin-trimmed product of P-PLpro(C2)-His6 (SARS-CoV)
[2] = target: SARS-CoV papain-like protease (PLpro), trypsin-trimmed product of P-PLpro(C2)-His6 (SARS-CoV); remark: listed apart in the source

ISG15(C)-AMC, sequence (P05161 82-157): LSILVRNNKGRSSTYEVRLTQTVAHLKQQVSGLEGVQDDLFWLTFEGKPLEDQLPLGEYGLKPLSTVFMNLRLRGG

ISG15(C)-AMC (from UniProt P05161 82-157) (domain or fragment)
kcat/KM of hydrolysis of ISG15(C)-AMC by PLpro (fluorescence, pH 7.8, 25 °C) [1]: 94000 M⁻¹ s⁻¹

Ub-7-amino-4-methylcoumarin
kcat/KM of hydrolysis of Ub-AMC by PLpro (fluorescence, pH 7.8, 25 °C) [2]: 19800 M⁻¹ s⁻¹
